Reference: patent US20150239968A1

Legend:
[1] = biological target: recombinant mature human GDF-15 protein (as expressed in Baculovirus-transfected insect cells) (human) (UniProt Q99988); assay: SPR (Biorad ProteOn XPR36, GLC chip), KD=koff/kon, GDF-15 from insect cells immobilized
[2] = biological target: GDF-15 produced by the prostate cancer cell line LnCap (UniProt Q99988); assay: cell-based or functional assay
[3] = biological target: recombinant mature human GDF-15 protein (as expressed in Baculovirus-transfected insect cells) (human) (UniProt Q99988); assay: SPR (Biorad ProteOn XPR36, GLC chip), GDF-15 from insect cells immobilized, antibody as analyte, 1:1 Langmuir, 25° C.
[4] = biological target: recombinant mature human GDF-15 protein derived from expression in E. coli (human) (UniProt Q99988); assay: SPR (Biorad ProteOn XPR36, GLC chip), GDF-15 from E. coli immobilized, antibody as analyte

- Kd [1]: 0.79 nM
- proliferation of LnCap cells (Alamar Blue assay) after 72 hrs [2]: 30%
- koff [3]: 0.00043 s⁻¹
- kon [3]: 540000 M⁻¹ s⁻¹
- deviation of rate constants against GDF-15 derived from insect cells [4]: 45%
- fold difference of affinity values against GDF-15 derived from insect cells [4]: < 2 fold
Substance: monoclonal anti-human GDF-15 mAb-B1-23 (antibody)
